Laboratory results published in US20230331850A1.

Experiments:
Experiment in all cases: Bio-Layer Interferometry (Precision Antibody)
[1] = target: 2W:IA^b (recombinant peptide:MHCII monomer) (mouse) (UniProt P14434)
[2] = target: p63:IA^g7 (recombinant peptide:MHCII monomer / tetramer) (mouse)
Eα52-68:IA^b (mouse) = Eα52-68:IA^b (mouse) (UniProt P14434)

Row | Substance | Kd [1] | other results
1 | AF6-120.1 (antibody) | 7.1 nM | –
2 | 10-2.16 MAb (anti-IA^g7) (antibody) | – | Kd [2]: 2.9 nM
3 | Y-Ae (anti-Eα:IA^b) (antibody) | – | Kd (Eα52-68:IA^b (mouse)): 0.48 nM
4 | Y3P (antibody) | 1.9 nM | –
